Results published in patent US20200123268A1 (UNIVERSIT DEGLI STUDI MAGNA GRAECIA CATANZARO, published 2020).
Where a chain is given by its changes, count along the chain named.

What was measured:
[1] = target: T1, CD43 #5 (truncated CD43, aa 91-400), expressed in HEK293T cells (human, UniProt P16150 91-400); assay: western blot of lysates of transfected HEK293T cells
T1 construct: also called CD43 Clone #5; not shown: His tag from the vector pLenti-CMV-(insert)-Histag-GFP-2A-Puro
T1 sequence: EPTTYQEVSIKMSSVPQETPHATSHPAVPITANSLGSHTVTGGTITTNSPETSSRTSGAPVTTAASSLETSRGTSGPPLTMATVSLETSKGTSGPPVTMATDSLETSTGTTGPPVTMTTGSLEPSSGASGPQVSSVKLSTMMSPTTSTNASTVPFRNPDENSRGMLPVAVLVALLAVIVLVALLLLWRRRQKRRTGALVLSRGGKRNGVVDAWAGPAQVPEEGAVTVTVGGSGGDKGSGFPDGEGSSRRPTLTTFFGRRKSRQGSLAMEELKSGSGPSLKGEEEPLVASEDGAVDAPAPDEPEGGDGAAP

[2] = target: T2, recombinant human CD43 extracellular portion (aa 20-253) produced in E. coli (human, UniProt P16150 20-253); assay: SPRi (PlexArray HT), antibody printed on the chip, Recombinant Human CD-43 (AA20-253) as analyte at 2.84 to 45.6 nM, 25 C
T2 construct: Made in E. coli, without mammalian glycosylation; No tags are stated; also called aglycosylated extracellular portion of CD43; unglycosylated-CD43 protein
T2 sequence: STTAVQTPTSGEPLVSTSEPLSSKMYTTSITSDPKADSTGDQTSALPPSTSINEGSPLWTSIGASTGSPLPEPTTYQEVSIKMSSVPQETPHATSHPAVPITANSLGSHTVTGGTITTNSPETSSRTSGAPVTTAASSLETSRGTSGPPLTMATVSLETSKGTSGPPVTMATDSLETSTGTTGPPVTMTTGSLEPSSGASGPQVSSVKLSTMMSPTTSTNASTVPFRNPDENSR

[3] = target: T3, human CD43, endogenous, on primary cells and cell lines that carry the UMG1 epitope (human, UniProt P16150 20-400, native glycosylation of the cell concerned); assay: competition flow cytometry on HPB-ALL cells against 1 ug/ml h-UMG1-PE
T3 construct: also called UMG1 antigen; the target
T3 sequence: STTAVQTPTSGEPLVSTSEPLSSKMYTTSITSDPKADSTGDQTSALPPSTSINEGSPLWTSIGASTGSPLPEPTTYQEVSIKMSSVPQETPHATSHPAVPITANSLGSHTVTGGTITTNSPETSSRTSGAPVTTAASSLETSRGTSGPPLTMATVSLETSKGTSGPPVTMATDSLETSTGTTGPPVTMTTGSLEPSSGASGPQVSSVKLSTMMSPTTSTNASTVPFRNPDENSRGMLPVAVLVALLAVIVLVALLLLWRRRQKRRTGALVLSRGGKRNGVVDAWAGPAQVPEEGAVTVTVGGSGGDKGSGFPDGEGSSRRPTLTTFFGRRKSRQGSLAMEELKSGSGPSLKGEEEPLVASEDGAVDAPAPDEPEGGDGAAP

[4] = target: T4, CD43 #6 (CD43 with deletion of aa 64 to 78), expressed in HEK293T cells (human, UniProt P16150 20-400); assay: western blot of lysates of transfected HEK293T cells
T4 construct: also called CD43 Clone #6; not shown: His tag from the vector pLenti-CMV-(insert)-Histag-GFP-2A-Puro
T4 sequence: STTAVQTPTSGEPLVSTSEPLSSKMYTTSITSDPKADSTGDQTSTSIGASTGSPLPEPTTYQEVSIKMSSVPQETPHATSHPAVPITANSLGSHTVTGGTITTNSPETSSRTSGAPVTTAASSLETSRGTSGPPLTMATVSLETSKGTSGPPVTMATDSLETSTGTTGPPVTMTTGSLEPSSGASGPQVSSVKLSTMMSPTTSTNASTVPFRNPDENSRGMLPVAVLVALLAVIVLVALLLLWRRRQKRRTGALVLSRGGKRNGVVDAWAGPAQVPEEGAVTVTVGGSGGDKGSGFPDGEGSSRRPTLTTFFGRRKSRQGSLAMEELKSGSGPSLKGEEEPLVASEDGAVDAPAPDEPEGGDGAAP

[5] = target: T3, human CD43, endogenous, on primary …; assay: competition flow cytometry on CEM cells against 1 ug/ml h-UMG1-PE
[6] = target: T2, recombinant human CD43 extracellular …; assay: SPRi (PlexArray HT), antibody printed on the chip, CD43 aa 20-253 from E. coli as analyte, 25 C
[7] = target: T1, CD43 #5 (truncated CD43, aa 91-400), …; assay: flow cytometry on transfected HEK293T cells, percent h-UMG1-PE positive among GFP positive cells
[8] = target: T5, CD43 #8 (CD43 aa 1-400 with T69N), expressed in HEK293T cells (human, UniProt P16150 20-400); assay: flow cytometry on transfected HEK293T cells, 1 ug/ml h-UMG1-PE, percent positive among GFP positive cells
T5 construct: also called CD43 Clone #8; not shown: His tag from the vector pLenti-CMV-(insert)-Histag-GFP-2A-Puro
T5 sequence: T3 sequence with T50N

[9] = target: T6, CD43 #7 (CD43 with deletion of aa 69), expressed in HEK293T cells (human, UniProt P16150 20-400); assay: as above
T6 construct: also called CD43 Clone #7; not shown: His tag from the vector pLenti-CMV-(insert)-Histag-GFP-2A-Puro
T6 sequence: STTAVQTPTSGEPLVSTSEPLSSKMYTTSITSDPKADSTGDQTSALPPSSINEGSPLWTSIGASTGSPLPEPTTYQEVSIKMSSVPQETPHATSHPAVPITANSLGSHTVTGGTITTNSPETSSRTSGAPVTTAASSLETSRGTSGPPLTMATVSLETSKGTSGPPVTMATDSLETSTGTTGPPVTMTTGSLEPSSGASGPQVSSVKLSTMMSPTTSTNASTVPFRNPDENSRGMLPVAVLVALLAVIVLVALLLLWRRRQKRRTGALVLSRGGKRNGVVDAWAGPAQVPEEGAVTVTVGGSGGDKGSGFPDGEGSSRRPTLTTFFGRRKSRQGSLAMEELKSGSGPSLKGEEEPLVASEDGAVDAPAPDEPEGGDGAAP

[10] = target: T4, CD43 #6 (CD43 with deletion of aa 64 to …); assay: flow cytometry on transfected HEK293T cells, percent h-UMG1-PE positive among GFP positive cells
[11] = target: T3, human CD43, endogenous, on primary …; assay: flow cytometry, antibody at 1 ug/ml, FITC mouse anti-human IgG secondary; cell line of the histograms not labelled (HPB-ALL or H9)

B1: h-UMG1 (humanized UMG1 antibody H3-L4) (antibody, human IgG1, kappa, V domains shown)
VH: EVQLVESGGGLVQPGGSLRLSCVASGFTFSSFGMHWVRQAPGKGLEWVAYISSGSGNFYYVDTVKGRFTISRDNAKNSLYLQMNSLRAEDTAVYYCARSTYYHGSRGAMDYWGQGTLVTVSS
VL: QVVMTQSPAFLSVTPGEKVTITCSASSSVSSMYWYQLKPDQAPKLLIYDTSKMASGVPIRFSGSGSGTDFTFTVSSVEAEDAATYYCQQWSSYPPITFGGGTKVEIKR
notes: The full chains are given as Human Heavy Chain (VH3) and Human Light Chain (VL4); IgG1; also called unconjugated h-UMG1
**Q.** Does B1 bind [1]?
**A.** no binding (tested: 1:500 dilution)

**Q.** And the koff [2]?
**A.** 0.000511 s⁻¹

**Q.** And the kon [2]?
**A.** 5140 M⁻¹ s⁻¹

**Q.** What about the “IC50 (read off the curve)” value [3] of the same binder?
**A.** ~0.4 µg/mL

**Q.** Does B1 bind [4]?
**A.** no binding (tested: 1:500 dilution)

**Q.** What about the “IC50 (read off the curve)” value [5] of the same binder?
**A.** ~0.04 µg/mL

**Q.** And the Kd [6]?
**A.** 99.4 nM

B2: h-UMG1-PE (phycoerythrin-conjugated h-UMG1) (antibody, human IgG1, kappa, V domains shown)
VH: B1 VH
VL: B1 VL
modifications: phycoerythrin conjugate, site not stated
notes: also called h-UMG1-PE conjugated antibody
**Q.** Does B2 bind [7]?
**A.** no binding (tested: 1 ug/ml)

**Q.** Does B2 bind [8]?
**A.** binds

**Q.** Does B2 bind [9]?
**A.** binds

**Q.** Does B2 bind [10]?
**A.** no binding (tested: 1 ug/ml)

B3: ch-UMG1 (chimeric antibody: murine UMG1 variable regions on human IgG1 constant regions) (antibody, V domains shown)
VH: DVQLVESGGGLVQPGGSRKLSCVASGFTFSSFGMHWVRQAPEKGLEWVAYISSGSGNFYYVDTVKGRFTISRDNPKNTLFLQMTSLRSEDTAMYYCARSTYYHGSRGAMDYWGQGTSVTVSS
VL: QIALTQSPAIMSASPGEKVTMTCSASSSVSSMYWYQLKPGSSPRLLIYDTSKMASGVPIRFSGSGSGTSFSLTVSRVEAEDAATYYCQQWSSYPPITFGAGSKLELKR
notes: also called chimeric mAb ch-UMG1; chimeric mAb
**Q.** Does B3 bind [11]?
**A.** binds
